Test results taken from the nanobody polyreactivity screen of Harvey et al. (2022).

test: yeast display, Sf9 membrane polyspecificity reagent, FACS + sequencing; frameworks hold sequencing errors
Summary of the method: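 Genes from sorted yeast were amplified by colony PCR, read by MiSeq 2 × 250 sequencing and filtered on CDR length. These cells carried a synthetic nanobody library in Saccharomyces cerevisiae BJ5465 and were sorted by FACS into low and high (top ~1%) gates on anti-HA and streptavidin fluorescence. Polyreactivity is labelled according to the gate of origin.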

Row | Sequence | polyreactivity (PSR sort gate)
1 | QVQLVESGGGLVQAGGSLRLSCAASGSTSTYYAMGWYRQAPGKERELVAAITLGAGRKYADSVKGRFTISRDNAKNTVYLQMNSLKPEDTAVYYCAADSHIDHGKWAYDYWGQGTQVTVSS | low polyreactivity
2 | QVQLVESGGGLVQAGGSLRLSCAASGSTSWSNARGWYRQAPGKERELLAAITTGASTYYADSVKGRFTMSRDNAKNTVYYQMNSLKPEDTAVYYCAADPWVLWSYYYWGQGTQVTVSS | low polyreactivity
3 | QVQLVESGGGLVQAGGSLRLSCAASGSTSWYDMGWYRQPPGKERELVASISSGDSTNYADSVKGRFTISRDNAKNTVYLQMNSLKPDDTAVYYCAADFNVGFVWGDDSDYWGQGTQVTVSS | low polyreactivity
4 | QVQLVESGGGLVQAGGSLRLSCAASGSTSYDNAMGWYRQAPGKERELVASISSDGSTNYADSVKGRFTISRDNAKNTVYLQMNSLKPEDTAVYYCNVEVTRGLSHDPEYDYWGQGTQVTVSS | low polyreactivity
5 | QVQLVESGGGLVQAGGSLRLSCAASGSTSYGYAMGWYRQAPGKERELVAAISYSGSSTYYADSVKGRFTISRDNAKNTVYLQMNSLKPEDTAVYYCNAKVYPGVGPKHRYDYWGQGTQVTVSS | low polyreactivity
6 | QVQLVESGGGLVQAGGSLRLSCAASGSTSYLYAMGWYRQAPGKERELVATITTRSGSTYYADSVKGRFTISRDNAKNTVYLQINSLKPEDTAVYYCAARWISVLSEGAEHDYWGQGTQVTVSS | low polyreactivity
7 | QVQLVESGGGLVQAGGSLRLSCAASGSTSYVYAMGWYRQAPGKERELVAANSGSGGRTYYADSVKGRFTISRDNAKNTVYLQMNSLKPEDTAVYYCNALTRPSYPFDYWGLGTQVTVSS | high polyreactivity
8 | QVQLVESGGGLVQAGGSLRLSCAASGSTVENNVMGWYRQAPGQERELVATITWGDGSTSYADSVKGRFTISRDNAKNTVYLKMNSLKTEVTAVYYCDAVDRIGYGKNQDHDYWGQGTQVTVSS | low polyreactivity
9 | QVQLVESGGGLVQAGGSLRLSCAASGSTVGAYAMGWYRQAPGKERELVAAISYSGGSTYYADSVKGRFTISRDNAKNSVYLQMNSLKPEDSAVYYCAAGTKYTSAVHFFYWGQGTQVTVSS | high polyreactivity
10 | QVQLVESGGGLVQAGGSLRLSCAASGSTVINYAMGWYRHAPGKERELVATLTSDGRTYYADSVKGRCTISRDNAKNTVYLQMISLKPEDTAVYSCAKSYGGVTEYDYWGQGTQVTVSS | low polyreactivity
11 | QVQLVESGGGLVQAGGSLRLSCAASGSTVKRNAMGWYRQAPGKERELVAAITQSGGSTYYADSVKGRFTISRHNAKNTVYLQMNSLKPEDTAVYYCAASDFRGRRYDYWGQGTQVTVSS | high polyreactivity
12 | QVQLVESGGGLVQAGGSLRLSCAASGSTVRRYAMGWYRQAPGKERELVAAISWSGGSTYYADSVKGRFTISRDNAKNTGYLQMNSLKPEDTAVYYCAARGVTSYWQDYDYWGQGTQLTVSS | low polyreactivity
13 | QVQLVESGGGLVQAGGSLRLSCAASGSTVSNYAMGWYRQAPGKERELVASISNGGSTNDADSVKGRFTISRANAKNTGYLQMNSLKPEDTAVYYCNAESKAKYDYWGQGTQVTLSS | low polyreactivity
14 | QVQLVESGGGLVQAGGSLRLSCAASGSTVVIKAMGWYRQAPGKERELVARISSSGGRTYYADSVKGRFTISRDNAKNTVYLQMNSLKPEDTAVYYCAKRGYLFLRGSVRVGYNYWGQGTQVTVSS | low polyreactivity
15 | QVQLVESGGGLVQAGGSLRLSCAASGSTVYHYAMGWNRQAPGKERELVAAISFSGGRTSYADSVKGRFTISRDNAKNTVDLQMNSLKPEDTAGYYCAAKYIRFARSRDYWGHGTQVTVSS | high polyreactivity
16 | QVQLVESGGGLVQAGGSLRLSCAASGSTYALNAMGWYRQAPGKDRDLVDAISRRGGSTYYADSVKGRFTISRDNAKNTVYLQMNSLKPEDTAVYYCAARNQSQRTGYDFWGQGTQVTVSS | high polyreactivity
17 | QVQLVESGGGLVQAGGSLRLSCAASGSTYAYYAMGWYRQATGKERELVAAISLSSGCTYYADSVKGRFTISRDKAKNTVYLQMNSLKPEDTAVYYCAADFASDSSRYEYWGQGTQVTVSS | low polyreactivity
18 | QVQLVESGGGLVQAGGSLRLSCAASGSTYHKDAMAWYRQAPGKERELVAAISNGGRTYYADSVKGRFTISRDNAKNTVYLKRNSLKPEATAVYYCAAVPRRGWDIRRYDSWGQGTQVTVSS | high polyreactivity
19 | QVQLVESGGGLVQAGGSLRLSCAASGSTYLINAMGWYRQAPGNERELVAAISDSGGSTHYADSVKGRFTISRDHAINTVYLHMKSLNPEDTAVYYCAATIPTTLILYGYWGQGTQVTVSS | low polyreactivity
20 | QVQLVESGGGLVQAGGSLRLSCAASGSTYNINAMGWYRQAPGKERELVAAISWSGGSTYYADSVKGRFTISRDNAKNTVYLQMNSLKPEDTAVYYCNALWVWYRGSSVRWVGGYDYWGQGTQVTVSS | high polyreactivity
21 | QVQLVESGGGLVQAGGSLRLSCAASGSTYPYAMGWYRQAPGKERELVAAIRWRGGSTKYADSVKGRFTISRDNAKNTVYLQMNSLKPEDTAVYYCARRWYYVLHGYWGQGTQVTVSS | high polyreactivity

Row | Sequence | polyreactivity (PSR sort gate)
22 | QVQLVESGGGLVQAGGSLRLSCAASGSTYPYYAMGWYRQAPGKERELVAAITSGGSTNYADSVKGRFTISRDNAKNTVYLQMNSLKPEDTAVYYCNADSSGWFPFDYWGQGTQVTVSS | low polyreactivity
23 | QVQLVESGGGLVQAGGSLRLSCAASGSTYRTYAMGWYRPAPGKERELVAAISSSGGSTYYADSVKGRFTISRDNAKNTVYLQMNSLKPEYTAVYYCNAGRSHRPHYDYWGQGTQVTVSS | high polyreactivity
24 | QVQLVESGGGLVQAGGSLRLSCAASGSTYRYTMGWYRQAPGKERELVAAITGSAGRTYYADSVKGRFTISRDNAKNTVYLQMNSLKPEDTAVYYCNKVRPRKFWDYYYWGQGTQVTVSS | high polyreactivity
25 | QVQLVESGGGLVQAGGSLRLSCAASGSTYRYYAMGWYRQAPGKERELVAGISWSGTSTYYADSVKGRFTISRDNANNTVYLQMNSLKPEDTAVYYSNVVWWSRYGTTYKYDYWGQGTQVTVSS | high polyreactivity
26 | QVQLVESGGGLVQAGGSLRLSCAASGSTYSWYVMGWYRQAPGKERELVAAISYRGGRTYYADSVKGRFTISRDNAKNTVYLQMNSLKPEDTAVYYCAARGVVDAGRTNRPYDYWGQGTQVTVSS | low polyreactivity
27 | QVQLVESGGGLVQAGGSLRLSCAASGSTYVYYAMGWYRQAPGKERELVAAISSSGGSTYYADSVKGRFTISRDNAKNTVYLQMNILKPEDTAVYYCNRYSSYIPYPYNYWGQGTQVTVSS | high polyreactivity
28 | QVQLVESGGGLVQAGGSLRLSCAASGSTYWNAMGWYRQAPGKERELVAAITFRGGSTYADSVKGRFTISRDNAKNTVYLQMNSLKPEDTAVYYCAKASSHRWYNVRNRAGYDYWGQGTQVTVSS | high polyreactivity
29 | QVQLVESGGGLVQAGGSLRLSCAASGSTYYAYAMGWYRQAPGKEREFVAAISSGGGSTYYADSVKGRFTISRDNAKNTVYLQMNSLKPVDTAVYYCAAVLYYYWRGYGPRSNRYDYWGQGTQVTVSS | high polyreactivity
30 | QVQLVESGGGLVQAGGSLRLSCAASGSTYYFYPMGSYRQAPGKERELVAAISFTDTSTYYADSVQGRFTISRDNAKNTVYLQMNSLKPEDTAVYYCAARYAGGYYYWGQGTQVTVSS | high polyreactivity
31 | QVQLVESGGGLVQAGGSLRLSCAASGSTYYNALGWYRPAPGKERELVAAIRFRSGSTYYADSVKGRFTISRDNAKNTDYVQMNSLKPEDTAVYYCAADNKRSWRYAYNYWGQGTQVTVSS | high polyreactivity
32 | QVQLVESGGGLVQAGGSLRLSCAASGSYFDYYAMGCYTQAPGKERELVAAISWRGGTTYYADSVKGRFTISRDTAKKTVYLQMNSLKPEETAVYYCNADKRFRRYDYWGQGTQVTVSS | high polyreactivity
33 | QVQLVESGGGLVQAGGSLRLSCAASGTFAGNALGWYRQAPGKERELVASITTGVRTYYADSGKGRFTLSRDNAKNTVYLQMHCLKPEDTAVYYCAADRIRDLEFYYWGQGTQVTVSS | low polyreactivity
34 | QVQLVESGGGLVQAGGSLRLSCAASGTFAGNAMGWYRQAPGKERELVAAITTGGRTYYADSVKRRFTISRDNAKNTLYIQMNSLKPEDTAVYYCAADRIRDLEFDYWGQGTQVTVSS | low polyreactivity
35 | QVQLVESGGGLVQAGGSLRLSCAASGTFGYMGWYRQAPGKERELVAAITSRGGGNTYYADSVKGRFTISRDNAKNTVYLQMNSLKPEDTAVYYCAASRVGYHGQTYDYWGQGTQVTVSS | high polyreactivity
36 | QVQLVESGGGLVQAGGSLRLSCAASGTFGYYTMGWYRQAPGKERELVAAITRSGGSTYYADSVKGRFTISRDNAKNTVYLQMNSLKPEDTAVYYFATELHAWSSWNRYRAYYYWGQGTQVTVSS | high polyreactivity
37 | QVQLVESGGGLVQAGGSLRLSCAASGTFHKYAMGWYRQAPGKERELVASISRSGGSTSYADSVKGRFTISRDNAKNTVYLQMNSLKPEDTAVYYCNAYQSSGRYRNSYGYWGQGTQVTVSS | high polyreactivity
38 | QVQLVESGGGLVQAGGSLRLSCAASGTFKWYAMGWYRQAPGKERELVAVISSSGGTTYYADSVKGRFTISRDNAKNTVYLQMNSLKPEDTAVYYCNVVKRRSDWGMDYWGQGTQVTVSS | high polyreactivity
39 | QVQLVESGGGLVQAGGSLRLSCAASGTFSQYAMGWYRQAPGKERQLVAAISQGGGSTYYADSVKGRFTISRDNAKNTVYLQMNSLKPEDTAVYYCARSRSYWGIVYGRYDYWGQGTQVTVSS | high polyreactivity
40 | QVQLVESGGGLVQAGGSLRLSCAASGTFSYYAMGWYIQAPGKERELVATIRSGGRTYYADSVKGRFTISRDNAKNTVYLQMNSLKPEDTAVYYCAKTGFLGLRQYGYWGQGTRVTVSS | high polyreactivity
41 | QVQLVESGGGLVQAGGSLRLSCAASGTFVKYARGWYRQAPGKERELVATITGSGGSTYYADSVKGRFTISRDNAKNTVYLQMNSLKPEDTAVYYCAAREGYVFYKYDYWGQGTQVTVSS | low polyreactivity
